Assay results published in PMC3695725.
Where two headings read alike, the source gives them in different places.

Columns and labels:
Test in all cases: SPR
[1] = target: recombinant full length GST-TIMAP (wt), non-phosphorylated
[2] = target: double-thiophosphorylated GST-TIMAP (wt)
[3] = target: mono-thiophosphorylated GST-TIMAP (wt)
[4] = target: recombinant full length GST-TIMAP (wt), non-phosphorylated; remark: listed apart in the source

## recombinant PP1cβ (catalytic subunit of protein phosphatase 1, β isoform) (from UniProt P62140 1-327) (enzyme)
[1]
  Ka: 1.8e+06 M⁻¹
[2]
  Ka: 1.93e+06 M⁻¹
  koff: 0.000522 s⁻¹
  kon: 1010 M⁻¹ s⁻¹
[3]
  Ka: 7.39e+06 M⁻¹
  koff: 0.000556 s⁻¹
  kon: 4110 M⁻¹ s⁻¹
[4]
  Ka: 1.28e+06 M⁻¹
  koff: 0.00366 s⁻¹
  kon: 4680 M⁻¹ s⁻¹
